Assay results as given in the supplement of paper PMC7125110.
± gives the standard error. For some assays here: Fewer inactive variants are shown than the library holds.

B1: glmS ribozyme (parent)
chain: AUAAAAGCGCCAGAACUACAGAAAUGUAGUUGACGAGGAGGAGGUUUAUCGAAUUUUCGGCGGAUGCCUCCAAA

Assays:
Conditions in all cases: with glucosamine-6-phosphate
glucosamine-6-phosphate [1] = variants of: B1; assay: kcat; higher = faster cleavage; RNA array
In short: (§1)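 Glucosamine-6-phosphate in HEPES/KCl/Mg(OAc)2 buffer, at 40 μM to 10 mM, was flowed over barcoded ribozyme variants transcribed in situ by E. coli RNA polymerase on sequenced MiSeq chips. Tracking was through a hybridised Cy3 probe at 37 °C. kobs, kcat and KM came from exponential decay fits and weighted Michaelis–Menten fits of normalised per-tile medians.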

glucosamine-6-phosphate [2] = variants of: B1; assay: self-cleavage kobs at 40 uM GlcN6P; higher = faster cleavage; RNA array
In short: as §1

glucosamine-6-phosphate [3] = variants of: B1; assay: self-cleavage kobs at 2500 uM GlcN6P; higher = faster cleavage; RNA array
In short: as §1

glucosamine-6-phosphate [4] = variants of: B1; assay: self-cleavage kobs at 10000 uM GlcN6P; higher = faster cleavage; RNA array
In short: as §1

glucosamine-6-phosphate [5] = variants of: B1; assay: KM; higher = weaker cofactor use; RNA array
In short: as §1

glucosamine-6-phosphate [6] = variants of: B1; assay: self-cleavage kobs at 640 uM GlcN6P; higher = faster cleavage; RNA array
In short: as §1

glucosamine-6-phosphate [7] = variants of: B1; assay: self-cleavage kobs at 160 uM GlcN6P; higher = faster cleavage; RNA array
In short: as §1

Variant	kcat (glucosamine-6-phosphate [1])	self-cleavage kobs at 40 uM GlcN6P (glucosamine-6-phosphate [2])	self-cleavage kobs at 2500 uM GlcN6P (glucosamine-6-phosphate [3])	self-cleavage kobs at 10000 uM GlcN6P (glucosamine-6-phosphate [4])	KM (glucosamine-6-phosphate [5])	self-cleavage kobs at 640 uM GlcN6P (glucosamine-6-phosphate [6])	self-cleavage kobs at 160 uM GlcN6P (glucosamine-6-phosphate [7])
C10G G62U	< 1e-05 s⁻¹	< 1e-05 s⁻¹	–	–	–	–	–
C10U C71U	3.48e-05 ± 5.8e-06 s⁻¹	< 1e-05 s⁻¹	1.75e-05 ± 5.3e-06 s⁻¹	3.05e-05 ± 5.4e-06 s⁻¹	–	–	–
C10U C71G	1.65e-05 ± 5.1e-06 s⁻¹	< 1e-05 s⁻¹	–	–	–	–	–
C10U A39G	3.18e-05 ± 4e-06 s⁻¹	< 1e-05 s⁻¹	4.09e-05 ± 2e-05 s⁻¹	2.93e-05 ± 8.6e-06 s⁻¹	–	–	–
C10G U54A	< 1e-05 s⁻¹	< 1e-05 s⁻¹	–	–	–	–	–
C11A A42G	0.000337 ± 5.9e-05 s⁻¹	–	0.000184 ± 4.7e-05 s⁻¹	0.000239 ± 5e-05 s⁻¹	3420 ± 1100 µM	4.77e-05 ± 1.4e-05 s⁻¹	–
C10U C70A	2.4e-05 ± 6e-06 s⁻¹	–	3.1e-05 ± 1.5e-05 s⁻¹	–	–	–	–
C10G A12G A53C G59C	1.95e-05 ± 6.6e-06 s⁻¹	–	–	–	–	–	–
C10A C34U C67G C68G	4.25e-05 ± 6.7e-06 s⁻¹	–	4.25e-05 ± 9.3e-06 s⁻¹	–	–	–	4.7e-05 ± 8.5e-06 s⁻¹
G9A G13C U30G G63U U69G	< 1e-05 s⁻¹	< 1e-05 s⁻¹	< 1e-05 s⁻¹	–	–	–	–
C10G C68G	5.21e-05 ± 1.5e-05 s⁻¹	–	4.78e-05 ± 1.7e-05 s⁻¹	–	–	4.42e-05 ± 1.8e-05 s⁻¹	–
C8G U57A C70A	5.04e-05 ± 1.1e-05 s⁻¹	–	–	–	–	–	–
G7A U55A	8.93e-05 ± 9.4e-06 s⁻¹	–	–	–	–	–	–
C10A G32U A53U C67U	1.23e-05 ± 4.1e-06 s⁻¹	–	–	–	–	–	–
C10U C11U A12G	2.44e-05 ± 6.4e-06 s⁻¹	–	–	–	–	–	< 1e-05 s⁻¹
C11A C67A	6.14e-05 ± 1e-05 s⁻¹	–	6.18e-05 ± 1.1e-05 s⁻¹	5.12e-05 ± 9.8e-06 s⁻¹	–	7.25e-05 ± 1.2e-05 s⁻¹	–
C8A G35U	< 1e-05 s⁻¹	–	< 1e-05 s⁻¹	< 1e-05 s⁻¹	–	–	–
C8A A48G	< 1e-05 s⁻¹	–	< 1e-05 s⁻¹	< 1e-05 s⁻¹	–	–	< 1e-05 s⁻¹
G9A G13U	< 1e-05 s⁻¹	–	< 1e-05 s⁻¹	< 1e-05 s⁻¹	–	–	–
C10U C34A C50A G51U C70A	5.4e-05 ± 1.3e-05 s⁻¹	–	–	7.55e-05 ± 2.9e-05 s⁻¹	–	–	–
C10G C50U	< 1e-05 s⁻¹	< 1e-05 s⁻¹	–	< 1e-05 s⁻¹	–	–	–
G9A A12U	5.42e-05 ± 3.1e-06 s⁻¹	–	–	2.41e-05 ± 1e-05 s⁻¹	–	–	< 1e-05 s⁻¹
C11A G51U U65C C68U	3.35e-05 ± 9e-06 s⁻¹	–	–	–	–	–	–
C10A U65A	1.06e-05 ± 3e-06 s⁻¹	–	–	–	–	–	–
G9A G38U	< 1e-05 s⁻¹	–	–	–	–	< 1e-05 s⁻¹	–
C10A G51U C68G	4.94e-05 ± 1.5e-05 s⁻¹	3.72e-05 ± 1.7e-05 s⁻¹	–	3.4e-05 ± 1.6e-05 s⁻¹	–	9.82e-05 ± 3.2e-05 s⁻¹	5.32e-05 ± 2.5e-05 s⁻¹

Variant	kcat (glucosamine-6-phosphate [1])	self-cleavage kobs at 40 uM GlcN6P (glucosamine-6-phosphate [2])	self-cleavage kobs at 2500 uM GlcN6P (glucosamine-6-phosphate [3])	self-cleavage kobs at 10000 uM GlcN6P (glucosamine-6-phosphate [4])	KM (glucosamine-6-phosphate [5])	self-cleavage kobs at 640 uM GlcN6P (glucosamine-6-phosphate [6])	self-cleavage kobs at 160 uM GlcN6P (glucosamine-6-phosphate [7])
G7C C50G	1.12e-05 ± 2.4e-06 s⁻¹	–	–	–	–	–	–
C10U U69A	1.11e-05 ± 3.7e-06 s⁻¹	–	–	–	–	–	–
C10U U69C	2.21e-05 ± 5.7e-06 s⁻¹	–	–	–	–	–	–
G9A C16A	< 1e-05 s⁻¹	–	–	–	31.6 ± 7.6 µM	–	–
C10A C50A	2e-05 ± 5.5e-06 s⁻¹	–	–	–	–	–	–
C10A G13A	< 1e-05 s⁻¹	< 1e-05 s⁻¹	–	–	–	–	< 1e-05 s⁻¹
C10U C67G	2.65e-05 ± 6.6e-06 s⁻¹	–	2.88e-05 ± 1.1e-05 s⁻¹	–	–	–	–
G9A G37U C70G	1.52e-05 ± 2.5e-06 s⁻¹	–	< 1e-05 s⁻¹	–	–	–	–
G7C A36G G37U A52U U57C G63U	< 1e-05 s⁻¹	–	< 1e-05 s⁻¹	–	–	–	–
G9U C71U	< 1e-05 s⁻¹	< 1e-05 s⁻¹	–	< 1e-05 s⁻¹	–	< 1e-05 s⁻¹	< 1e-05 s⁻¹
G9A A42G	1.5e-05 ± 2.2e-06 s⁻¹	< 1e-05 s⁻¹	–	–	–	–	–
C10A G60U	0.000974 ± 0.00015 s⁻¹	3.82e-05 ± 7.9e-06 s⁻¹	0.000514 ± 8.6e-05 s⁻¹	0.000886 ± 8.3e-05 s⁻¹	1660 ± 470 µM	0.000243 ± 3.1e-05 s⁻¹	8.97e-05 ± 1.6e-05 s⁻¹
C10A G60C	< 1e-05 s⁻¹	–	–	–	–	< 1e-05 s⁻¹	–
C11A G60C	< 1e-05 s⁻¹	–	–	–	–	–	< 1e-05 s⁻¹
C10U U56G	3.3e-05 ± 4.5e-06 s⁻¹	–	2.86e-05 ± 8.5e-06 s⁻¹	2.92e-05 ± 6.7e-06 s⁻¹	–	–	–
C10U U56C	2.01e-05 ± 2.1e-06 s⁻¹	< 1e-05 s⁻¹	–	–	–	–	–
C11A C61G	1.14e-05 ± 3.7e-06 s⁻¹	< 1e-05 s⁻¹	–	–	–	–	–
G9C G38C C67A U69C	< 1e-05 s⁻¹	–	–	–	–	–	–
G9C G60A	< 1e-05 s⁻¹	–	–	–	–	< 1e-05 s⁻¹	–
C10U A12U C50U	2.27e-05 ± 6.7e-06 s⁻¹	–	–	–	–	–	–
C10G A14G G32C G37A C67G	2.2e-05 ± 6.4e-06 s⁻¹	–	–	–	–	–	–
C10U A33U	4.38e-05 ± 4e-06 s⁻¹	< 1e-05 s⁻¹	4.07e-05 ± 1.2e-05 s⁻¹	3.99e-05 ± 6.2e-06 s⁻¹	–	–	–
C11A G32U	5.22e-05 ± 2.5e-05 s⁻¹	< 1e-05 s⁻¹	–	–	–	–	< 1e-05 s⁻¹
G7U C70G	0.000479 ± 0.00015 s⁻¹	0.000382 ± 0.00012 s⁻¹	–	–	–	0.0004 ± 0.00014 s⁻¹	0.000844 ± 0.0002 s⁻¹
C11A G59A	0.000719 ± 4.8e-05 s⁻¹	–	0.000248 ± 5e-05 s⁻¹	0.000516 ± 5.9e-05 s⁻¹	4140 ± 480 µM	9.86e-05 ± 1.6e-05 s⁻¹	–
